Assay results: patent US20190169232A1 (FEINSTEIN INSTITUTES FOR MEDICAL RESEARCH, published 2019)
Each block holds one binder with its values, some of them ahead of it.

Assays:
RAGE on human monocytes = molecular target: T1, RAGE on human monocytes (human, UniProt Q15109 23-404); experiment: proximity ligation assay on human monocytes, condition without C1q
T1 construct: whole, on cells

[1] = molecular target: T2, Human recombinant RAGE (hrRAGE), soluble RAGE (human, UniProt Q15109 24-344, limits assumed); experiment: SPR (data not shown)
T2 construct: Called soluble RAGE (sRAGE) in the SPR and bead experiments; also called sRAGE; Receptor for Advanced Glycation Endproducts
T2 sequence (Q15109 24-344 limits assumed): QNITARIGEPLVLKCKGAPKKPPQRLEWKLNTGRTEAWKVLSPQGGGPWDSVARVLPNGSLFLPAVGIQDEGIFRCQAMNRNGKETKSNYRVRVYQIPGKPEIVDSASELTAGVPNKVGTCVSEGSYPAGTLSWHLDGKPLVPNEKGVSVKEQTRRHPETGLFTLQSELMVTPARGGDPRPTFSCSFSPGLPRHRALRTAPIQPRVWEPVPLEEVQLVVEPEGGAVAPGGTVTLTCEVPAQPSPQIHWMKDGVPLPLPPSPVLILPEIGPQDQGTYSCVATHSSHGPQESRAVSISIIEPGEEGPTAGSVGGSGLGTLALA

[2] = molecular target: T3, C1q purified from pooled normal human sera (human, UniProt P02746 28-253; P02747 29-245); experiment: SPR kinetics, C1q immobilised on a CM5 chip, HMGB1 redox form as analyte in a concentration series, 1:1 fit
T3 construct: mature; Bought from Complement Technology, purified from serum; It names no B or C chains; Biotinylated for the bead assay; also called human C1q; first component of complement
T3 sequence (P02746 28-253, chain 2 of 2): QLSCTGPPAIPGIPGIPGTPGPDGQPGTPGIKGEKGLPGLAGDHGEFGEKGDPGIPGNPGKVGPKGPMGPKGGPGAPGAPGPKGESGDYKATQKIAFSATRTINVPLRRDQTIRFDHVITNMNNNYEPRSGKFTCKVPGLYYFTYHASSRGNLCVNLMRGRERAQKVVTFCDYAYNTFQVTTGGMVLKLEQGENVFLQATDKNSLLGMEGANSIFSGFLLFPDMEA
T3 sequence (P02747 29-245, chain 3 of 2): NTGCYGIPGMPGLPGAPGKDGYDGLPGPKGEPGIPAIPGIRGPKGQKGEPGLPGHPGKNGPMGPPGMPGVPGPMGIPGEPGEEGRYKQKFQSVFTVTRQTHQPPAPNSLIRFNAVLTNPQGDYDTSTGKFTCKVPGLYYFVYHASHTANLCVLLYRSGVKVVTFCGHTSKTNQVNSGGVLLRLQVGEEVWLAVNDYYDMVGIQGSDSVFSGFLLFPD
Protocol: A 1:1 mixture of N-hyrdoxysuccinimide and N-ethyl-N-(dimethyaminopropyl) carbodiimide was used to activate 2 flow-cells of the CM5 chip. […] The analyte (HMGB1) was diluted in 1× HBS-N+0.05% tween-20 buffer (filtered—0.22 um). Three redox states of HMGB1 were sequentially injected at a flow rate of 20 μl/min for 60 s at 25° C., the dissociation time was set for 3 minutes. […]

[3] = molecular target: T3, C1q purified from pooled normal human …; experiment: SPR (BIAcore T200), HMGB1 immobilized on a CM5 chip, C1q as analyte at 5 concentrations, 1:1 fit
Protocol: Surface Plasmon Resonance analysis (SPR): For real-time binding interaction studies, a BIAcore T200 instrument (GE Healthcare) was used. […] A 1:1 mixture of N-hydroxysuccinimide and N-ethyl-N-(dimethyaminopropyl) carbodiimide was used to activate 2 flow-cells of the CM5 chip. […] The analytes were diluted in 1× PBS+0.01% (vol/vol) tween-20 buffer. The analytes were sequentially injected at a flow rate of 30 μl/min for 60 s at 25° C. The KD was determined using the BIAcore evaluation software 2.0 (GE Healthcare) supposing a 1:1 binding ratio.

T1 sequence (Q15109 23-404): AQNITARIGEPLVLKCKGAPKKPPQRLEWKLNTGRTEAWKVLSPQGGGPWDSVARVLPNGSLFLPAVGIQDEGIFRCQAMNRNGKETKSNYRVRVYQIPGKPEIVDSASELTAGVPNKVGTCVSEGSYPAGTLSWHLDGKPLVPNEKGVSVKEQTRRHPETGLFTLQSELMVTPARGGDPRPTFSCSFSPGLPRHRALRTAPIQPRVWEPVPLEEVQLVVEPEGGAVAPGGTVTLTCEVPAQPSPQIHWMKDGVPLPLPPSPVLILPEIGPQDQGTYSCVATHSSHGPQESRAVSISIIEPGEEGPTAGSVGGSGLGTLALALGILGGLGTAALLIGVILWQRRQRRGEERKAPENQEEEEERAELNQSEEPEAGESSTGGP

binding result (RAGE on human monocytes): no binding
B1: LAIR-1 on human monocytes (receptor, UniProt Q6GTX8 22-287, looked up)
chain: QEEDLPRPSISAEPGTVIPLGSHVTFVCRGPVGVQTFRLERDSRSTYNDTEDVSQASPSESEARFRIDSVREGNAGLYRCIYYKPPKWSEQSDYLELLVKESSGGPDSPDTEPGSSAGPTQRPSDNSHNEHAPASQGLKAEHLYILIGVSVVFLFCLLLLVLFCLHRQNQIKQGPPRSKDEEQKPQQRPDLAVDVLERTADKATVNGLPEKDRETDTSALAAGSSQEVTYAQLDHWALTQRTARAVSPQSTKPMAESITYAAVARH
notes: whole, on cells; also called Leukocyte-Associated Ig-like Receptor 1; CD305

binding result [1]: no binding
B2: C1q tail (C1q collagen-like tail) purified from whole C1q (other)
chain 1: EDLCRAPDGKKGEAGRPGRRGRPGLKGEQGEPGAPGIRTGIQGLKGDQGEPGPSGNPGKVGYPGPSGPLGARGIPGIKGTKGSPGNI
chain 2: not shown
chain 3: not shown
notes: domain: collagen-like tail; Fragment prepared from whole serum C1q 'as previous described (22)'; also called C1q collagen tail

Kd [2]: 210 nM
B3: Disulfide HMGB1 (ligand, UniProt P09429 1-215, looked up)
chain: MGKGDPKKPRGKMSSYAFFVQTCREEHKKKHPDASVNFSEFSKKCSERWKTMSAKEKGKFEDMAKADKARYEREMKTYIPPKGETKKKFKDPNAPKRPPSAFFLFCSEYRPKIKGEHPGLSIGDVAKKLGEMWNNTAADDKQPYEKKAAKLKEKYEKDIAAYRAKGKPDAAKKGVVKAEKSKKKKEEEEDEEDEEDEEEEEDEEDEDEEEDDDDE
modifications: disulfide bond between C23 and C45, with a free cysteine at C106
notes: also called disulfide form of HMGB1

Kd [3]: 200 nM
B4: Recombinant HMGB1 (Calmodulin Binding Protein Epitope, Cbp tagged) (ligand, human, UniProt P09429 1-215, looked up, not shown: small tags and cut ends)
chain: B3 chain
notes: also called High Mobility Group Box 1

Kd [2]: 1060 nM
B5: All-thiol HMGB1 (ligand, not shown: small tags and cut ends)
chain: B3 chain
modifications: All-thiol form: C23, C45 and C106 all stand as free reduced thiols, with no C23-C45 disulfide. The letters are unchanged.
notes: Analyte in the SPR assays on immobilised C1q; also called reduced HMGB1
